Measurements published in patent US20220195068A1 (TENEOBIO, published 2022).

Target: T1, human PSMA (Prostate Specific Membrane Antigen, Glutamate Carboxypeptidase II) on cells (human, UniProt Q04609 1-750)
T1 construct: whole, on cells; the cell line is named under assay; also called cell surface expressed PSMA; FOLH1
Assay: flow cytometry on LNCaP cells
Description: Briefly, 50,000 target cells were stained with a dilution series of purified UniAbs™ for 30 minutes at 4° C. Following incubation, the cells were washed twice with flow cytometry buffer (1X PBS, 1% BSA, 0.1% NaN₃) and stained with goat F(ab')₂ anti-human IgG conjugated to R-phycoerythrin (PE) (Southern Biotech, cat. #2042-09) to detect cell-bound antibodies. After a 20-minute incubation at 4° C., the cells were washed twice with flow cytometry buffer and the mean fluorescence intensity (MFI) was measured by flow cytometry. The MFI of cells stained with secondary antibody alone were used for determination of background signal and binding of each antibody was converted to fold over background. Binding to cynomolgus PSMA positive cells was determined using the same protocol with the following modifications: the target cells were from Freestyle 293-F cells (ThermoFisher R79007) transiently transfected to express the extracellular domain of cynomolgus PSMA. In some experiments EC50 values were calculated using GraphPad Prism 7.

T1 sequence (Q04609 whole entry): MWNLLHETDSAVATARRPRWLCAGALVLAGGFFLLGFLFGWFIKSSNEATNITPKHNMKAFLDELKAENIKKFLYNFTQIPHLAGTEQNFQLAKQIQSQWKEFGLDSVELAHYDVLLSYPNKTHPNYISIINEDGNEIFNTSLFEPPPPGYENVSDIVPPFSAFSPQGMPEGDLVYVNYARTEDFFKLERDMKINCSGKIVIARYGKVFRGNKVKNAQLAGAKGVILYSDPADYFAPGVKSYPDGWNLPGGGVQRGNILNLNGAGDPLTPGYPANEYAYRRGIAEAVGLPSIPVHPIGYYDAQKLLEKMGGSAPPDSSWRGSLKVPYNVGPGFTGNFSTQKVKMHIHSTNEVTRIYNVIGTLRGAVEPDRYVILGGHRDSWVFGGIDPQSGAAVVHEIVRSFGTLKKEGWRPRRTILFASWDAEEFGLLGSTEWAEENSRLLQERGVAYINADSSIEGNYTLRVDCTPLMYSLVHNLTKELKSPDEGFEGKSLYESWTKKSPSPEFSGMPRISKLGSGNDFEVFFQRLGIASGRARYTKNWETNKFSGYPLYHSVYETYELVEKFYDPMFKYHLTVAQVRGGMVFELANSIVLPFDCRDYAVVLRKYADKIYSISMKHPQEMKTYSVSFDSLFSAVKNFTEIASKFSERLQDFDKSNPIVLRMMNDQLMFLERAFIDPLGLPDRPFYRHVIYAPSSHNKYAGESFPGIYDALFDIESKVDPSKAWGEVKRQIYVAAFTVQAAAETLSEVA

Binder | fold over the background MFI signal [fold over background]
anti-PSMA heavy chain antibody clone ID 346172 (antibody, V domains shown, heavy chain-only antibody (UniAb), no light chain) VH: QLQLQESGPGLVKPSETLSLTCTVSGGSISSSSYYWGWIRQPPGKGLEWIGSIDYSGYTYYNPSLKSRVTISVDTSKNQFSLKLSSVTAADTAVYNCARHKAATADFDYRGQGTLVTVSS | 216
anti-PSMA heavy chain antibody clone ID 325920 (antibody, V domains shown, heavy chain-only antibody (UniAb), no light chain; also called Antibody 2) VH: QLQLQESGPGLVKPSETLSLTCTVSGGSISSSSYYWGWIRQPPGKGLEWIGSIDYSGYTYYNPSLQSRVTISVDTSKNQFSLKLSSVTAADTAVYNCARHKAATADFDYRGQGTLVTVSS | 282
anti-PSMA heavy chain antibody clone ID 326109 (antibody, V domains shown, heavy chain-only antibody (UniAb), no light chain) VH: QLQLQESGPGLVKPSETLSLTCTVSGGSISSNSYYWGWIRQSPGKGLEWLGSIYDSGSTHYNPSLKSRVIISGDTSKNQFSLKLSSVTAADTAVYYCARHKAATADFDYRGQGTLVTVSS | 25
anti-PSMA heavy chain antibody clone ID 346165 (antibody, V domains shown, heavy chain-only antibody (UniAb), no light chain) VH: QLQLQESGPGLVKPSETLSLTCTVSGGSISSSSYYWGWIRQPPGKGLEWIGSVDYSGYTYYNPSLQSRVTISVDTSKNQFSLKLSSVTAADTAVYNCARHKAATADFDYRGQGTLVTVSS | 243
anti-PSMA heavy chain antibody clone ID 346181 (antibody, V domains shown, heavy chain-only antibody (UniAb), no light chain; also called HCAb 346181) VH: QLQLQESGPGLVKPSETLSLTCTVSGGSISSSNYFWGWIRQSPGKGLEWIGSIDYSGYTYYNPSLKSRVTISVDTSKNQFSLKLSSVTAADTAVYNCARHKAATADFDYRGQGTLVTVSS | 264
anti-PSMA heavy chain antibody clone ID 325748 (antibody, V domains shown, heavy chain-only antibody (UniAb), no light chain) VH: QVQLVESGGGVVQPGRSLRLSCAASGFSFSSYGMHWVRQAPGKGLEGVAVIWYDGSNRYYADSVKGRFTISRDNSKNTLYLQMNSLRAEDTAVYYCAREPRIGYYYESSGYYSLDYRGQGTLVTVSS | 193
anti-PSMA heavy chain antibody clone ID 325742 (antibody, V domains shown, heavy chain-only antibody (UniAb), no light chain) VH: QVQLVESGGGVVQPGRSLRLSCAASGFSFSSYGMHWVRQAPGKGLEWVAVIWYDGSNKYYADSVKGRFTISRDYSKNTLYLQMNSLRAEDTAVYYCAREPRIGYYYESSGYDSLDYRGQGTLVTVSS | 200
anti-PSMA heavy chain antibody clone ID 325836 (antibody, V domains shown, heavy chain-only antibody (UniAb), no light chain) VH: QVQLVESGGGVVQPGRSLRLSCAASGFSFRSYGMHWVRQAPGKGLEWVAVIWYDGSNKYYADSVKGRFTISRDYSKNTLYLQMNSLRAEDTAVYYCAREPRIGYYYDSSGYDSLDYRGQGTLVTVSS | 163
anti-PSMA heavy chain antibody clone ID 325867 (antibody, V domains shown, heavy chain-only antibody (UniAb), no light chain; also called Antibody 1) VH: QVQLVESGGGVVQPGRSLRLSCAASGFSFRSYGMHWVRQAPGKGLEWVAVIWYDGSNKYYADSVKGRFTISRDYSKNTLYLQMNSLRAEDTAVYYCAREPRIGYYYESSGYDSLDYRGQGTLVTVSS | 210
anti-PSMA heavy chain antibody clone ID 325940 (antibody, V domains shown, heavy chain-only antibody (UniAb), no light chain) VH: QVQLVESGGGVVQPGRSLRLSCAASGFIFRSYGMHWVRQAPGKGPEWVAVIWYDGSNKYYADSVKGRFTISRDNSKNTLYLQMNSLRAEDTAVYYCAREPRIGYYYESSGYYSLDYRGQGTLVTVSS | 169
anti-PSMA heavy chain antibody clone ID 326027 (antibody, V domains shown, heavy chain-only antibody (UniAb), no light chain) VH: QVQLVESGGGVVQPGRSLRLSCAASGFSFRSYGMHWVRQAPGKGLEWVAVIWYDGSNKYYADSVKGRFTISRDNSKNTLYLQMNSLRAEDTAVYYCAREPRIGYYYDSSGYDSLDYRGQGTLVTVSS | 138
anti-PSMA heavy chain antibody clone ID 326028 (antibody, V domains shown, heavy chain-only antibody (UniAb), no light chain) VH: QVQLVESGGGVVQPGRSLRLSCAASGFSFRSYGMHWVRQAPGKGLEWVAVISYDGSNKYYADSVKGRFTISRDYSKNTLYLQMNSLRAEDTAVYYCAREPRIGYYYDSSGYDSLDYRGQGTLVTVSS | 117
anti-PSMA heavy chain antibody clone ID 326029 (antibody, V domains shown, heavy chain-only antibody (UniAb), no light chain) VH: QVQLVESGGGVVQPGRSLRLSCAASGFSFSRYGMHWVRQAPGKGLEWVAVISYDGSNKYYADSVKGRFTISRDNSKNTLYLQMNSLRAEDTAVYYCAREPRVGYYYETSGYYSLDYRGQGTLVTVSS | 109
anti-PSMA heavy chain antibody clone ID 326084 (antibody, V domains shown, heavy chain-only antibody (UniAb), no light chain) VH: QVQLVESGGGVVQPGRSLRLSCAASGFSFSSYGMHWVRQAPGKGLEGVAVIWYDGSNRYYADSVKGRFTISRDNSKNTLYLQMNSLRAEDTAVYYCAREPRIGYYYDSSGYYSLDYRGQGTLVTVSS | 125
anti-PSMA heavy chain antibody clone ID 326087 (antibody, V domains shown, heavy chain-only antibody (UniAb), no light chain) VH: QVQLVESGGGVVQPGRSLRLSCAASGFIFRSYGMHWVRQAPGKGPEWVAVIWYDGSNKYYADSVKGRFTISRDNSKNTLYLQMNSLRAEDTAVYYCAREPRIGYYYDSSGYDSLDYRGQGTLVTVSS | 129
anti-PSMA heavy chain antibody clone ID 326116 (antibody, V domains shown, heavy chain-only antibody (UniAb), no light chain) VH: QVQLVESGGGVVQPGRSLRLSCAASGFSFSRYGMHWVRQAPGKGLEGVAVISYDGSNKYYADSVKGRFTISRDYSKNTLYLQMNSLRAEDTAVYYCAREPRIGYYYDSSGYDSLDYRGQGTLVTVSS | 38
anti-PSMA heavy chain antibody clone ID 345421 (antibody, V domains shown, heavy chain-only antibody (UniAb), no light chain) VH: QVQLVESVGGVVQPGRSLRLSCAASGFSFSSYGMHWVRQAPGKGLEGVAVIWYDGSNRYYADSVKGRFTISRDNSKNTLYLQMNSLRAEDTAVYYCAREPRIGYYYESSGYYSLDYRGQGTLVTVSS | 22
anti-PSMA heavy chain antibody clone ID 345436 (antibody, V domains shown, heavy chain-only antibody (UniAb), no light chain) VH: QVQLVESGGGVVQPGRSLRLSCAASGFSFSRYGMHWVRQAPGKGLEGVAVIWYDGSNKYYADSVKGRFTISRDNSKNTLYLQMNSLRAEDTAVYYCAREPRIGYYYESSGYYSLDYRGQGTLVTVSS | 87
anti-PSMA heavy chain antibody clone ID 345438 (antibody, V domains shown, heavy chain-only antibody (UniAb), no light chain) VH: QVQLVESGGGVVQPGRSLRLSCAASGFSFSSYGMHWVRQAPGKGPEWVAVIWYDGSNKYYADSVKGRFTISRDNSKNTLYLQMNSLRAEDTAVYYCAREPRIGYYYESSGYYSLDYRGQGTLVTVSS | 13
anti-PSMA heavy chain antibody clone ID 345443 (antibody, V domains shown, heavy chain-only antibody (UniAb), no light chain) VH: QVQLVESGGGVVQPGRSLRLSCAASGFSFSSYGMHWVRQAPGKGLEGVAVIWYDGSNRYYADSVKGRFTISRDNSKNTLFLQMNSLRAEDTAVYYCAREPRIGYYYESSGYYSLDYRGQGTLVTVSS | 84
anti-PSMA heavy chain antibody clone ID 345444 (antibody, V domains shown, heavy chain-only antibody (UniAb), no light chain) VH: QVQLVESGGGVVQPGRSLRLSCAASGFTFSSYGMHWVRQAPGKGLEGVAVIWYDGSNRYYADSVKGRFTISRDNSKNTLYLQMNSLRAEDTAVYYCAREPRIGYYYESSGYYSLDYRGQGTLVTVSS | 23
anti-PSMA heavy chain antibody clone ID 345447 (antibody, V domains shown, heavy chain-only antibody (UniAb), no light chain) VH: QVQLVESGGGVVQPGRSLRLSCAASGFSFSSYGMHWVRQAPGKGLEGVAVISYDGSNRYYADSVKGRFTISRDNSKNTLYLQMNSLRAEDTAVYYCAREPRIGYYYESSGYYSLDYRGQGTLVTVSS | 14
anti-PSMA heavy chain antibody clone ID 345461 (antibody, V domains shown, heavy chain-only antibody (UniAb), no light chain) VH: QVQLVESGGGVVQPGRSLRLSCAASGFSFTSYGMHWVRQAPGKGLEGVAVIWYDGSNRYYADSVKGRFTISRDNSKNTLYLQMNSLRAEDTAVYYCAREPRIGYYYESSGYYSLDYRGQGTLVTVSS | 102
anti-PSMA heavy chain antibody clone ID 345463 (antibody, V domains shown, heavy chain-only antibody (UniAb), no light chain) VH: QVQLVESGGGVVQPGRSLRLSCAASGFIFRSYGMHWVRQAPGKGPEWVAVIWYDGSNKYYADSVKGRFTISRDNSKNTLYLQMNSLRAEDTAVYYCAREPRIGYYYESSGYYSLDYRGQGTLVTVSS | 68
anti-PSMA heavy chain antibody clone ID 345480 (antibody, V domains shown, heavy chain-only antibody (UniAb), no light chain) VH: QVQLVESGGGVVQPGRSLRLSCAASGFSFSSYGMHWVRQAPGKGLEWVAVIWYDGSNRYYADSVKGRFTISRDNSKNTLYLQMNSLRAEDTAVYYCAREPRIGYYYESSGYYSLDYRGQGTLVTVSS | 47
anti-PSMA heavy chain antibody clone ID 345482 (antibody, V domains shown, heavy chain-only antibody (UniAb), no light chain) VH: QVQLVESGGGVVQPGRSLRLSCAASGFSFSSYGMHWVRQAPGKGLEGVAVIWYDGSNRYYADSVKGRFTISRDSSKNTLYLQMNSLRAEDTAVYYCAREPRIGYYYESSGYYSLDYRGQGTLVTVSS | 80
anti-PSMA heavy chain antibody clone ID 345485 (antibody, V domains shown, heavy chain-only antibody (UniAb), no light chain) VH: QVQLVESGGGVVQPGRSLRLSCAASGFSFRSYGMHWVRQAPGKGLEWVAVIWYDGSNKYYADSVKGRFTISRDNSKNTMYLQMNSLRAEDTAVYYCAREPRIGYYYESSGYYSLDYRGQGTLVTVSS | 71
anti-PSMA heavy chain antibody clone ID 345490 (antibody, V domains shown, heavy chain-only antibody (UniAb), no light chain) VH: QVQLVESGGGLVKPGGSLRLSCAASGFSFSSYGMHWVRQAPGKGLEGVAVIWYDGSNRYYADSVKGRFTISRDNSKNTLYLQMNSLRAEDTAVYYCAREPRIGYYYESSGYYSLDYRGQGTLVTVSS | 80
anti-PSMA heavy chain antibody clone ID 345493 (antibody, V domains shown, heavy chain-only antibody (UniAb), no light chain) VH: QVQLVESGGGVVQPGRSLRLSCAASGFSFSRYGMHWVRQAPGKGLEWVAVIWYDGSNRYYADSVKGRFTISRDNSKNTLYLQMNSLRAEDTAVYYCAREPRIGYYYESSGYYSLDYRGQGTLVTVSS | 101
anti-PSMA heavy chain antibody clone ID 345497 (antibody, V domains shown, heavy chain-only antibody (UniAb), no light chain; also called HCAb 345497) VH: QVQLVESGGGVVQPGRSLRLSCAASGFSFSRYGMHWVRQAPGKGLEGVAVIWYDGSNRYYADSVKGRFTISRDNSKNTLYLQMNSLRAEDTAVYYCAREPRIGYYYESSGYYSLDYRGQGTLVTVSS | 112
